In publication PMC4372654:
Read-outs that look alike come from different tables or passages of the source.

How the values were obtained:
Assay in all cases: competition
[1] = target: T1, Orf16 (KfrA homolog), His-tagged (Paenibacillus popilliae ATCC 14706T …, UniProt A0A0D6CB60 1-326)
T1 sequence: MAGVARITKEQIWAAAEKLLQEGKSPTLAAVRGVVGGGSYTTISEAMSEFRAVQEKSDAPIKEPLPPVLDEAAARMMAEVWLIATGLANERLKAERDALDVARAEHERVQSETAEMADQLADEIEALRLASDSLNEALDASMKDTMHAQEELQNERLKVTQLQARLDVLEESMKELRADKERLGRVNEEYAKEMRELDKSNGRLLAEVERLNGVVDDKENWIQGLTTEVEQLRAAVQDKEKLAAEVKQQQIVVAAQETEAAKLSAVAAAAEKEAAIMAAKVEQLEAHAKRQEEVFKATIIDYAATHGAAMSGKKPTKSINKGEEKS

[2] = target: T2, Orf8 (KfrA homolog), His-tagged (Paenibacillus popilliae ATCC 14706T …, UniProt A0A0D6CAG5 1-327)
T2 sequence: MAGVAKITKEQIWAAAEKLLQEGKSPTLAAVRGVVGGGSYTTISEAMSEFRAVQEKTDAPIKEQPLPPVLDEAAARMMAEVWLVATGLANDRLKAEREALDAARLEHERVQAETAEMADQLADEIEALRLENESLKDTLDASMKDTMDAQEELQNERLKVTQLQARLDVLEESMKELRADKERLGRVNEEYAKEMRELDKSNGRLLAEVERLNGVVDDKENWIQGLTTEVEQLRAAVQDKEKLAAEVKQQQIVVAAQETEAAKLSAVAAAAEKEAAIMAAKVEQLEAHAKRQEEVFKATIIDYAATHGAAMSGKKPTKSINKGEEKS

[3] = target: T1, Orf16 (KfrA homolog), His-tagged; remark: listed apart in the source

B1: IR3 (dsDNA)
DNA 1: CATACTACATATTACATATTACATACTACATACTACAATATGGAGGGTG
DNA 2: GTACCACCCTCCATATTGTAGTATGTAGTATGTAATATGTAATATGTAGTATGAGCT
binding result [1]: binds | binding result [2]: binds

B2: IR4 (dsDNA)
DNA 1: CATACTACATACAATATACAACATACTACAATATGGAGGGTG
DNA 2: GTACCACCCTCCATATTGTAGTATGTTGTATATTGTATGTAGTATGAGCT
binding result [1]: binds | binding result [2]: binds

B3: IR1 (dsDNA)
DNA 1: CATGAAAAAATCATG
DNA 2: GTACCATGATTTTTTCATGAGCT
binding result [3]: no binding
